Measured values from publication PMC4876856.

Target: truncated rabbit TRPV2 (residues 56-560 and 581-721) (rabbit) (UniProt G1SNM3)
Test: cryo-EM structure

Substance: truncated rabbit TRPV2 (residues 56-560 and 581-721) (from UniProt G1SNM3 56-560; G1SNM3 581-721) (domain or fragment)
- stoichiometry N: 4
